The test deals with HIV-1 Env variant ADA.CM, trimer on virions (HIV-1 (ADA.CM)).

The source of these data is article PMC8413895.

Substance 4E10 Fab (parental, wild-type) came in with an IC50 of neutralization of ADA.CM pseudovirus, TZM-bl assay of 2.7 µg/mL.
